From paper PMC11272584 (Nature Metabolism, 2024)

T1: GIPR W233* (Homo sapiens, UniProt P48546)
T1 construct: host or cells: HEK293
T1 sequence (P48546 22-232 limits assumed): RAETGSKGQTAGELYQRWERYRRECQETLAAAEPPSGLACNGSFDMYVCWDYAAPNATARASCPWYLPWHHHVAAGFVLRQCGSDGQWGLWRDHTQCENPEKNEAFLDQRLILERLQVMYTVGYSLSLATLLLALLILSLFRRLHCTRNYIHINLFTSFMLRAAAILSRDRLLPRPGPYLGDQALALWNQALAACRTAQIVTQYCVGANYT

T2: GIPR I221M (Homo sapiens, UniProt P48546, I221M)
T2 construct: host or cells: HEK293
T2 sequence (P48546 22-466 I221M): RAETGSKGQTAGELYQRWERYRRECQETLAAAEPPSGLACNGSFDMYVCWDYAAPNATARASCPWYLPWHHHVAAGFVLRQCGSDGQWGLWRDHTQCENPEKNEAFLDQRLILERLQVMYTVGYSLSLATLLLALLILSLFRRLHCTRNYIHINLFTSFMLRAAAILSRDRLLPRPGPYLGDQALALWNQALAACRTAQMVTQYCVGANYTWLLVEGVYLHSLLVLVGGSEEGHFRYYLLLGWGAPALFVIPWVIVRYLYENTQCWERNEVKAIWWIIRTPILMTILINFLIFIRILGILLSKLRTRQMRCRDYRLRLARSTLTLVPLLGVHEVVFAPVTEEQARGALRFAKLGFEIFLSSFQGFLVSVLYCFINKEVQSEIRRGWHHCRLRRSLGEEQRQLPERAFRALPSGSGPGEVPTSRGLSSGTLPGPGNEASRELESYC

T3: GIPR L261H (Homo sapiens, UniProt P48546, L261H)
T3 construct: host or cells: HEK293
T3 sequence (P48546 22-466 L261H): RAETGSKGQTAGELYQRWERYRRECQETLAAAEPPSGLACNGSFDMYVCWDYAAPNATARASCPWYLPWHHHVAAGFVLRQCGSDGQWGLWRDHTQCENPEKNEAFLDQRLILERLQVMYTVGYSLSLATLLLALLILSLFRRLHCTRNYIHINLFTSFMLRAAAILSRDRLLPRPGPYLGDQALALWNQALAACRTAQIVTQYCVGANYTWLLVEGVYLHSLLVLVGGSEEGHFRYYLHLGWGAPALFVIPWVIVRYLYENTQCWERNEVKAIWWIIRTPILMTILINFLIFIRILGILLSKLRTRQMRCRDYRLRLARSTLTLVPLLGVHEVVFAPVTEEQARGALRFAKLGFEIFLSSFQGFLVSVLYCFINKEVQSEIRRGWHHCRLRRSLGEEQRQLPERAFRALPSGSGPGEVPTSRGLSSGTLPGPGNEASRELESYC

T4: GIPR E291K (Homo sapiens, UniProt P48546, E291K)
T4 construct: host or cells: HEK293
T4 sequence (P48546 22-466 E291K): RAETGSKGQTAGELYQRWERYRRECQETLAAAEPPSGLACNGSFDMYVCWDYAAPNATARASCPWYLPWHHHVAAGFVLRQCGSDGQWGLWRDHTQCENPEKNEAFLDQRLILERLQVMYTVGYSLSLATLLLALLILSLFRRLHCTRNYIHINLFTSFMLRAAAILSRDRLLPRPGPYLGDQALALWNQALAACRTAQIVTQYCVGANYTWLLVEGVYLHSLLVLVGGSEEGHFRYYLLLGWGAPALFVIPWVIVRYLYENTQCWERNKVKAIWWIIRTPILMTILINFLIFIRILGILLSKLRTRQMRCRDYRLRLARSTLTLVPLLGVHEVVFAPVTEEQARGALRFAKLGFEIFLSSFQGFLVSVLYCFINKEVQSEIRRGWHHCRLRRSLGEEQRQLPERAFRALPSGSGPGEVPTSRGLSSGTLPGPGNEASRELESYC

T5: GIPR A294V (Homo sapiens, UniProt P48546, A294V)
T5 construct: host or cells: HEK293
T5 sequence (P48546 22-466 A294V): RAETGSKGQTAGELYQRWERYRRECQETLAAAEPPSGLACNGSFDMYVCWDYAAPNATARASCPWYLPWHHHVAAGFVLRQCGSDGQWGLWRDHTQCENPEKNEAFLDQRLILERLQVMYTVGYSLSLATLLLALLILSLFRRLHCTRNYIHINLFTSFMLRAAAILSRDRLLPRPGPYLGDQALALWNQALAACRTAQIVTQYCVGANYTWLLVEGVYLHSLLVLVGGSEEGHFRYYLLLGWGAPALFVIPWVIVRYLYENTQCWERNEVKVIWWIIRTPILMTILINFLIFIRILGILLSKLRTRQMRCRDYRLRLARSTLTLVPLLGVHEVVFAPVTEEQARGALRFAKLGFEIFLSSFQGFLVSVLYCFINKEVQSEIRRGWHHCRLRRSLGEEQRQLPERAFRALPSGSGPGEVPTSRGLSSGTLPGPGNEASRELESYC

T6: GIPR E288G (Homo sapiens, UniProt P48546, E288G)
T6 construct: host or cells: HEK293
T6 sequence (P48546 22-466 E288G): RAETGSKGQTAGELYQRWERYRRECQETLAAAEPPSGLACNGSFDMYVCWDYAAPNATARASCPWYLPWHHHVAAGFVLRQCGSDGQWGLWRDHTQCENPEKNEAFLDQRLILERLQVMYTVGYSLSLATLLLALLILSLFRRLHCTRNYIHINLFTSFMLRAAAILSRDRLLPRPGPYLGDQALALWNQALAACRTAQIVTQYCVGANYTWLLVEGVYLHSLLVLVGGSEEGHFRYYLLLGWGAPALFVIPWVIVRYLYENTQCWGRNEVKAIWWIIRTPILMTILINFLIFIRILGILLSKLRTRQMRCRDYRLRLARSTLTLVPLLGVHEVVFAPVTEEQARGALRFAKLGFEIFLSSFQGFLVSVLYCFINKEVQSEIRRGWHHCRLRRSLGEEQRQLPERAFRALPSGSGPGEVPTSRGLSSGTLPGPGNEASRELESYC


Assays:
GIPR W233* = target: T1, GIPR W233*; experiment: cAMP accumulation; type: cell-based
Experimental: (§1) HEK293 (CRL-1573, American Type Culture Collection) and β-arrestin 1/2 knockout cells, generated from HEK293A[48], were used for cAMP measurement, homologues competition binding and β-arrestin 2 recruitment. […] Both cell lines were cultured at 5% CO2 at 37 °C in Roswell Park Memorial Institute GlutaMAX-I supplemented with 10% fetal bovine serum, 180 units ml^−1 penicillin, and 45 g ml^−1 streptomycin. For the cAMP and binding experiments, cells were transfected with the calcium phosphate precipitation method[49].
(§2) cAMP production was measured with the DiscoverX Hithunter cAMP assay according to the manufacturer’s protocol (DiscoverX). […] On the day of the assay, the cells were washed twice with HEPES-buffered saline (HBS) and incubated with HBS and 1 mM 3-isobutyl-1-methylxanthine for 30 min at 37 °C. […] After the incubation, the assay medium was removed from the plate and the cells were washed with 30 µl PBS and treated with 40 µl enzyme donor–lysis buffer–chemiluminescent reagents and 10 µl cAMP antibodies for 60 min before 40 µl enzyme acceptor solution added. After a 3-h incubation on a shaking table in the dark, the cAMP accumulation was measured based on luminescence with a Perkin Elmer EnVision 2104 Multilabel Microplate Reader.

GIPR variants (groups) [1] = experiment: cAMP accumulation; type: cell-based, human; settings: for In vitro groups (cAMP): cAMP part of the in vitro group; for percentage_camp: cAMP production compared with WT; for Beta, cAMP: in vitro cAMP production per GIPR variant
Experimental: HEK293 (CRL-1573, American Type Culture Collection) and β-arrestin 1/2 knockout cells, generated from HEK293A[48], were used for cAMP measurement, homologues competition binding and β-arrestin 2 recruitment. For the internalization assay, endosomal signalling and basal receptor localization experiments, HEK293A (R70507, Thermo Fisher) cells were used. Both cell lines were cultured at 5% CO2 at 37 °C in Roswell Park Memorial Institute GlutaMAX-I supplemented with 10% fetal bovine serum, 180 units ml^−1 penicillin, and 45 g ml^−1 streptomycin. For the cAMP and binding experiments, cells were transfected with the calcium phosphate precipitation method[49]. The polyethyleneimine (PEI) transfection method was used for the β-arrestin 2 recruitment assays[50], endosomal signalling and basal receptor localization assays, while the lipofectamine transfection method was used for the internalization assay.
as §2
For cAMP accumulation, the data were fitted as a sigmoidal curve with a Hill slope of 1; for homologous competition binding, the data were fitted as a sigmoidal curve with a Hill slope of −1.

GIPR variants (groups) [2] = experiment: β-arrestin 2 recruitment (BRET); settings: for In vitro groups (β-arrestin): arr part of the in vitro group; for Beta, Barr: in vitro β-arrestin recruitment per GIPR variant;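 on all read-outs here: BRET readout of β-arrestin 2 recruitment in transiently transfected HEK293 cells expressing WT GIPR or a GIPR variant plus GPCR kinase 2, Rluc8 donor and citrine acceptor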
GIPR I221M = target: T2, GIPR I221M; experiment: cAMP accumulation; type: cell-based
Experimental: as §1, §2

GIPR L261H = target: T3, GIPR L261H; experiment: cAMP accumulation; type: cell-based
Experimental: as §1, §2

GIPR E291K = target: T4, GIPR E291K; experiment: cAMP accumulation; type: cell-based
Experimental: as §1
(§3) cAMP production was measured with the DiscoverX Hithunter cAMP assay according to the manufacturer’s protocol (DiscoverX). […] On the day of the assay, the cells were washed twice with HEPES-buffered saline (HBS) and incubated with HBS and 1 mM 3-isobutyl-1-methylxanthine for 30 min at 37 °C. […] After the incubation, the assay medium was removed from the plate and the cells were washed with 30 µl PBS and treated with 40 µl enzyme donor–lysis buffer–chemiluminescent reagents and 10 µl cAMP antibodies for 60 min before 40 µl enzyme acceptor solution added. After a 3-h incubation on a shaking table in the dark, the cAMP accumulation was measured based on luminescence with a Perkin Elmer EnVision 2104 Multilabel Microplate Reader. […]

GIPR A294V = target: T5, GIPR A294V; experiment: cAMP accumulation; type: cell-based
Experimental: as §1, §3

GIPR E288G = target: T6, GIPR E288G; experiment: cAMP accumulation; type: cell-based
Experimental: as §1, §2

Molecule	Efficacy at 100pmol (cAMP) (GIPR W233*)	Efficacy at 100pmol (cAMP) (GIPR I221M)	Efficacy at 100pmol (cAMP) (GIPR L261H)	Efficacy at 100pmol (cAMP) (GIPR E291K)	Efficacy at 100pmol (cAMP) (GIPR A294V)	Efficacy at 100pmol (cAMP) (GIPR E288G)	In vitro groups (cAMP) (GIPR variants (groups) [1])	percentage_camp (GIPR variants (groups) [1]) [% cAMP]	In vitro groups (β-arrestin) (GIPR variants (groups) [2])	Beta, cAMP (GIPR variants (groups) [1])	Beta, Barr (GIPR variants (groups) [2])
W233* (protein) RAETGSKGQTAGELYQRWERYRRECQETLAAAEPPSGLACNGSFDMYVCWDYAAPNATARASCPWYLPWHHHVAAGFVLRQCGSDGQWGLWRDHTQCENPEKNEAFLDQRLILERLQVMYTVGYSLSLATLLLALLILSLFRRLHCTRNYIHINLFTSFMLRAAAILSRDRLLPRPGPYLGDQALALWNQALAACRTAQIVTQYCVGANYT	0.06458						LoF_camp	<50	LoF_arr		
E291K (protein) RAETGSKGQTAGELYQRWERYRRECQETLAAAEPPSGLACNGSFDMYVCWDYAAPNATARASCPWYLPWHHHVAAGFVLRQCGSDGQWGLWRDHTQCENPEKNEAFLDQRLILERLQVMYTVGYSLSLATLLLALLILSLFRRLHCTRNYIHINLFTSFMLRAAAILSRDRLLPRPGPYLGDQALALWNQALAACRTAQIVTQYCVGANYTWLLVEGVYLHSLLVLVGGSEEGHFRYYLLLGWGAPALFVIPWVIVRYLYENTQCWERNKVKAIWWIIRTPILMTILINFLIFIRILGILLSKLRTRQMRCRDYRLRLARSTLTLVPLLGVHEVVFAPVTEEQARGALRFAKLGFEIFLSSFQGFLVSVLYCFINKEVQSEIRRGWHHCRLRRSLGEEQRQLPERAFRALPSGSGPGEVPTSRGLSSGTLPGPGNEASRELESYC				0.3479			LoF_camp	<50	LoF_arr	0.3479	0.1982
A294V (protein) RAETGSKGQTAGELYQRWERYRRECQETLAAAEPPSGLACNGSFDMYVCWDYAAPNATARASCPWYLPWHHHVAAGFVLRQCGSDGQWGLWRDHTQCENPEKNEAFLDQRLILERLQVMYTVGYSLSLATLLLALLILSLFRRLHCTRNYIHINLFTSFMLRAAAILSRDRLLPRPGPYLGDQALALWNQALAACRTAQIVTQYCVGANYTWLLVEGVYLHSLLVLVGGSEEGHFRYYLLLGWGAPALFVIPWVIVRYLYENTQCWERNEVKVIWWIIRTPILMTILINFLIFIRILGILLSKLRTRQMRCRDYRLRLARSTLTLVPLLGVHEVVFAPVTEEQARGALRFAKLGFEIFLSSFQGFLVSVLYCFINKEVQSEIRRGWHHCRLRRSLGEEQRQLPERAFRALPSGSGPGEVPTSRGLSSGTLPGPGNEASRELESYC					0.6171		WT-like_camp	>50	WT-like_arr	0.6171	0.6328
E288G (protein) RAETGSKGQTAGELYQRWERYRRECQETLAAAEPPSGLACNGSFDMYVCWDYAAPNATARASCPWYLPWHHHVAAGFVLRQCGSDGQWGLWRDHTQCENPEKNEAFLDQRLILERLQVMYTVGYSLSLATLLLALLILSLFRRLHCTRNYIHINLFTSFMLRAAAILSRDRLLPRPGPYLGDQALALWNQALAACRTAQIVTQYCVGANYTWLLVEGVYLHSLLVLVGGSEEGHFRYYLLLGWGAPALFVIPWVIVRYLYENTQCWGRNEVKAIWWIIRTPILMTILINFLIFIRILGILLSKLRTRQMRCRDYRLRLARSTLTLVPLLGVHEVVFAPVTEEQARGALRFAKLGFEIFLSSFQGFLVSVLYCFINKEVQSEIRRGWHHCRLRRSLGEEQRQLPERAFRALPSGSGPGEVPTSRGLSSGTLPGPGNEASRELESYC						0.04101	LoF_camp	<50	LoF_arr	0.04101	0.09099

The next lines start with results.

Efficacy at 100pmol (cAMP) (GIPR W233*)	Efficacy at 100pmol (cAMP) (GIPR I221M)	Efficacy at 100pmol (cAMP) (GIPR L261H)	Efficacy at 100pmol (cAMP) (GIPR E291K)	Efficacy at 100pmol (cAMP) (GIPR A294V)	Efficacy at 100pmol (cAMP) (GIPR E288G)	Molecule	In vitro groups (cAMP) (GIPR variants (groups) [1])	percentage_camp (GIPR variants (groups) [1]) [% cAMP]	In vitro groups (β-arrestin) (GIPR variants (groups) [2])	Beta, cAMP (GIPR variants (groups) [1])	Beta, Barr (GIPR variants (groups) [2])
	0.8221					I221M (protein) RAETGSKGQTAGELYQRWERYRRECQETLAAAEPPSGLACNGSFDMYVCWDYAAPNATARASCPWYLPWHHHVAAGFVLRQCGSDGQWGLWRDHTQCENPEKNEAFLDQRLILERLQVMYTVGYSLSLATLLLALLILSLFRRLHCTRNYIHINLFTSFMLRAAAILSRDRLLPRPGPYLGDQALALWNQALAACRTAQMVTQYCVGANYTWLLVEGVYLHSLLVLVGGSEEGHFRYYLLLGWGAPALFVIPWVIVRYLYENTQCWERNEVKAIWWIIRTPILMTILINFLIFIRILGILLSKLRTRQMRCRDYRLRLARSTLTLVPLLGVHEVVFAPVTEEQARGALRFAKLGFEIFLSSFQGFLVSVLYCFINKEVQSEIRRGWHHCRLRRSLGEEQRQLPERAFRALPSGSGPGEVPTSRGLSSGTLPGPGNEASRELESYC	WT-like_camp	>50	LoF_arr	0.8221	0.1962
		0.4533				L261H (protein) RAETGSKGQTAGELYQRWERYRRECQETLAAAEPPSGLACNGSFDMYVCWDYAAPNATARASCPWYLPWHHHVAAGFVLRQCGSDGQWGLWRDHTQCENPEKNEAFLDQRLILERLQVMYTVGYSLSLATLLLALLILSLFRRLHCTRNYIHINLFTSFMLRAAAILSRDRLLPRPGPYLGDQALALWNQALAACRTAQIVTQYCVGANYTWLLVEGVYLHSLLVLVGGSEEGHFRYYLHLGWGAPALFVIPWVIVRYLYENTQCWERNEVKAIWWIIRTPILMTILINFLIFIRILGILLSKLRTRQMRCRDYRLRLARSTLTLVPLLGVHEVVFAPVTEEQARGALRFAKLGFEIFLSSFQGFLVSVLYCFINKEVQSEIRRGWHHCRLRRSLGEEQRQLPERAFRALPSGSGPGEVPTSRGLSSGTLPGPGNEASRELESYC	LoF_camp	<50	LoF_arr	0.4533	0
